Assay results as given in patent US20250066745A1, “MUTANTS AND USE THEREOF” (BGI SHENZHEN, priority 2021, published 2025).
Where a chain is given by its changes, count along the chain named. In names and notes the source's numbering stands.

What was measured:
Format in all cases: biochemical
Design in all cases: key to Activity of mutant relative to wild-type Gaussia luciferase without the signal peptide: ratio of mutant luminescence intensity to wild-type Gaussia luciferase
[1] = Luminescence activity assay of purified Gaussia luciferase mutants on coelenterazine; details: Substrate CTZ (Table 16)
How it was run: (§1)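 Readout: luminescence intensity, as ratio to signal-peptide-free wild-type enzyme. Enzyme 1 μg/mL, substrate 100 μM stock, 10 μL + 90 μL; buffer 50 mM Tris-HCl pH 8.0, 100 mM NaCl, 0.1% Tween-20.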

[2] = Luminescence activity assay of purified Gaussia luciferase mutants on fluoro-coelenterazine; details: Substrate f-CTZ (Table 16)
Procedure: In this Example, the protein concentration was determined with a BCA quantitative kit (Thermo Scientific™ Pierce™ BCA Protein Assay Kit) accurately. The purified luciferase obtained in Example 5 was diluted with diluent (50 mM Tris-HCl, pH 8.0, 100 mM NaCl, 0.1% (v/v) Tween-20) to 1 μg/mL. The diluted luciferase, taken for 10 μL, was moved into a black 96-well plate, then added with 90 μL of the substrates coelenterazine, fluoro-coelenterazine or coelenterazine derivative ZS2 (purchased from Biolab) which was diluted into 100 μM with the same diluent, and the luminescence intensity of the plate was read with a self-luminescence module of a microplate reader. The mutation site of the mutant, the measured luminescence intensity, the ratio of luminescence intensities of the advantageous mutants to the wild-type Gaussia luciferase without the signal peptide having the sequence shown in SEQ ID NO: 3 are shown in Table 15. The results of catalytic activity assay of the advantageous mutants relative to the wild-type Gaussia luciferase without the signal peptide having the sequence shown in SEQ ID NO: 3 on substrate coelenterazine are shown in FIG. 6. […] The results of catalytic activity assay of the advantageous mutants relative to the wild-type Gaussia luciferase without the signal peptide having the sequence shown in SEQ ID NO: 3 on substrate fluoro-coelenterazine are shown in FIG. 7.
The new mutant library constructed in Example 7 was screened and tested for substrate specificity. Expression and purification schemes were the same as that in Example 5, and the activity assay scheme was the same as that in Example 6. The respective catalytic activities of combinatorial mutants on coelenterazine, fluoro-coelenterazine or coelenterazine derivative ZS2, and coelenterazine derivative ZS26 (purchased from BIOLAB) were assayed, and comparisons among the substrate specificities of the combinatorial mutants were based on the ratios of catalytic activities on two corresponding substrates.

[3] = Luminescence activity assay of purified Gaussia luciferase mutants on coelenterazine derivative ZS2; details: Substrate ZS2 (Table 16)
How it was run: as §1

B1: N27Y V29G A30D V31L A32V S33V A36G T37D L40F Y97*: Gaussia luciferase mutant (protein)
chain: MGVKVLFALICIAVAEAKPTENNEDFYIGDLVVNFGDTDFDADRGKLPGKKLPLEVLKEMEANARKAGCTRGCLICLSHIKCTPKMKKFIPGRCHTEGDKESAQGGIGEAIVDIPEIPGFKDLEPMEQFIAQVDLCVDCTTGCLKGLANVQCSDLLKKWLPQRCATFASKIQGQVDKIKGAGGD
modifications: SIGNAL (1)..(17)
notes: Gaussia luciferase mutant
- Activity of mutant relative to wild-type Gaussia luciferase without the signal peptide [1]: 0.000
- Activity of mutant relative to wild-type Gaussia luciferase without the signal peptide [2]: 0.009
- Activity of mutant relative to wild-type Gaussia luciferase without the signal peptide [3]: 0.001

B2: A42G Q152H T167G S170T G174N K178S A182Y G183A: Gaussia luciferase mutant (protein)
chain: MGVKVLFALICIAVAEAKPTENNEDFNIVAVASNFATTDLDGDRGKLPGKKLPLEVLKEMEANARKAGCTRGCLICLSHIKCTPKMKKFIPGRCHTYEGDKESAQGGIGEAIVDIPEIPGFKDLEPMEQFIAQVDLCVDCTTGCLKGLANVHCSDLLKKWLPQRCAGFATKIQNQVDSIKGYAGD
modifications: SIGNAL (1)..(17)
notes: Gaussia luciferase mutant
- Activity of mutant relative to wild-type Gaussia luciferase without the signal peptide [1]: 0.568
- Activity of mutant relative to wild-type Gaussia luciferase without the signal peptide [2]: 0.657
- Activity of mutant relative to wild-type Gaussia luciferase without the signal peptide [3]: 0.001

B3: K66N E102A S103T A104G E110G D123N L124M V138D K180: Gaussia luciferase mutant (protein)
chain: MGVKVLFALICIAVAEAKPTENNEDFNIVAVASNFATTDLDADRGKLPGKKLPLEVLKEMEANARNAGCTRGCLICLSHIKCTPKMKKFIPGRCHTYEGDKATGQGGIGGAIVDIPEIPGFKNMEPMEQFIAQVDLCDDCTTGCLKGLANVQCSDLLKKWLPQRCATFASKIQGQVDKIKGAGGD
- Activity of mutant relative to wild-type Gaussia luciferase without the signal peptide [1]: 0.945
- Activity of mutant relative to wild-type Gaussia luciferase without the signal peptide [2]: 6.874
- Activity of mutant relative to wild-type Gaussia luciferase without the signal peptide [3]: 1.880

B4: P53L: Gaussia luciferase mutant (protein)
chain: B3 chain with P53L, N66K, A102E, T103S, G104A, G110E, N123D, M124L, D138V
modifications: SIGNAL (1)..(17)
notes: Gaussia luciferase mutant
- Activity of mutant relative to wild-type Gaussia luciferase without the signal peptide [1]: 0.007
- Activity of mutant relative to wild-type Gaussia luciferase without the signal peptide [2]: 0.010
- Activity of mutant relative to wild-type Gaussia luciferase without the signal peptide [3]: 0.002

B5: K66R H79K P84K E102D S103I A104G L124M V138E: Gaussia luciferase mutant (protein)
chain: B3 chain with N66R, H79K, P84K, A102D, T103I, G110E, N123D, D138E
modifications: SIGNAL (1)..(17)
notes: Gaussia luciferase mutant
- Activity of mutant relative to wild-type Gaussia luciferase without the signal peptide [1]: 0.407
- Activity of mutant relative to wild-type Gaussia luciferase without the signal peptide [2]: 0.857
- Activity of mutant relative to wild-type Gaussia luciferase without the signal peptide [3]: 0.459

B6: K66N H79K P84K E102K S103I E110P L124M: Gaussia luciferase mutant (protein)
chain: B3 chain with H79K, P84K, A102K, T103I, G104A, G110P, N123D, D138V
modifications: SIGNAL (1)..(17)
notes: Gaussia luciferase mutant
- Activity of mutant relative to wild-type Gaussia luciferase without the signal peptide [1]: 0.755
- Activity of mutant relative to wild-type Gaussia luciferase without the signal peptide [2]: 1.728
- Activity of mutant relative to wild-type Gaussia luciferase without the signal peptide [3]: 1.118

B7: K66N E102D S103T E110G L124M V138E: Gaussia luciferase mutant (protein)
chain: B3 chain with A102D, G104A, N123D, D138E
modifications: SIGNAL (1)..(17)
notes: Gaussia luciferase mutant
- Activity of mutant relative to wild-type Gaussia luciferase without the signal peptide [1]: 0.134
- Activity of mutant relative to wild-type Gaussia luciferase without the signal peptide [2]: 0.794
- Activity of mutant relative to wild-type Gaussia luciferase without the signal peptide [3]: 0.471

B8: P84A E102A S103I E110P D123N: Gaussia luciferase mutant (protein)
chain: B3 chain with N66K, P84A, T103I, G104A, G110P, M124L, D138V
modifications: SIGNAL (1)..(17)
notes: Gaussia luciferase mutant
- Activity of mutant relative to wild-type Gaussia luciferase without the signal peptide [1]: 1.343
- Activity of mutant relative to wild-type Gaussia luciferase without the signal peptide [2]: 1.802
- Activity of mutant relative to wild-type Gaussia luciferase without the signal peptide [3]: 1.409

B9: K66N P84A E102K S103I E110G L124M V138E: Gaussia luciferase mutant (protein)
chain: B3 chain with P84A, A102K, T103I, G104A, N123D, D138E
modifications: SIGNAL (1)..(17)
notes: Gaussia luciferase mutant
- Activity of mutant relative to wild-type Gaussia luciferase without the signal peptide [1]: 0.654
- Activity of mutant relative to wild-type Gaussia luciferase without the signal peptide [2]: 0.896
- Activity of mutant relative to wild-type Gaussia luciferase without the signal peptide [3]: 0.620

B10: K66R P84A E102K A104G E110A L124M V138E: Gaussia luciferase mutant (protein)
chain: B3 chain with N66R, P84A, A102K, T103S, G110A, N123D, D138E
modifications: SIGNAL (1)..(17)
notes: Gaussia luciferase mutant
- Activity of mutant relative to wild-type Gaussia luciferase without the signal peptide [1]: 1.073
- Activity of mutant relative to wild-type Gaussia luciferase without the signal peptide [2]: 10.315
- Activity of mutant relative to wild-type Gaussia luciferase without the signal peptide [3]: 2.637

B11: K66N H79K E102D E110P L124M: Gaussia luciferase mutant (protein)
chain: B3 chain with H79K, A102D, T103S, G104A, G110P, N123D, D138V
modifications: SIGNAL (1)..(17)
notes: Gaussia luciferase mutant
- Activity of mutant relative to wild-type Gaussia luciferase without the signal peptide [1]: 1.554
- Activity of mutant relative to wild-type Gaussia luciferase without the signal peptide [2]: 0.404
- Activity of mutant relative to wild-type Gaussia luciferase without the signal peptide [3]: 0.751

B12: K66N P84L E102A S103I A104G E110P D123N L124M V138D: Gaussia luciferase mutant (protein)
chain: B3 chain with P84L, T103I, G110P
modifications: SIGNAL (1)..(17)
notes: Gaussia luciferase mutant
- Activity of mutant relative to wild-type Gaussia luciferase without the signal peptide [1]: 0.513
- Activity of mutant relative to wild-type Gaussia luciferase without the signal peptide [2]: 5.207
- Activity of mutant relative to wild-type Gaussia luciferase without the signal peptide [3]: 0.041

B13: P84A E102A S103I D123L V138D: Gaussia luciferase mutant (protein)
chain: B3 chain with N66K, P84A, T103I, G104A, G110E, N123L, M124L
modifications: SIGNAL (1)..(17)
notes: Gaussia luciferase mutant
- Activity of mutant relative to wild-type Gaussia luciferase without the signal peptide [1]: 0.473
- Activity of mutant relative to wild-type Gaussia luciferase without the signal peptide [2]: 0.991
- Activity of mutant relative to wild-type Gaussia luciferase without the signal peptide [3]: 0.825

B14: K66N H79K P84A E102E S103I D123N L124M V138E K159N I179*: Gaussia luciferase mutant (protein)
chain: MGVKVLFALICIAVAEAKPTENNEDFNIVAVASNFATTDLDADRGKLPGKKLPLEVLKEMEANARNAGCTRGCLICLSKIKCTAKMKKFIPGRCHTYEGDKEIAQGGIGEAIVDIPEIPGFKNMEPMEQFIAQVDLCEDCTTGCLKGLANVQCSDLLKNWLPQRCATFASKIQGQVDKKGAGGD
modifications: SIGNAL (1)..(17)
notes: Gaussia luciferase mutant
- Activity of mutant relative to wild-type Gaussia luciferase without the signal peptide [1]: 0.000
- Activity of mutant relative to wild-type Gaussia luciferase without the signal peptide [2]: 0.009
- Activity of mutant relative to wild-type Gaussia luciferase without the signal peptide [3]: 0.001

B15: N27D V29Y A30G V31L A32V S33K A36D L40V: Gaussia luciferase mutant (protein)
chain: MGVKVLFALICIAVAEAKPTENNEDFDIYGLVKNFDTTDVDADRGKLPGKKLPLEVLKEMEANARKAGCTRGCLICLSHIKCTPKMKKFIPGRCHTYEGDKESAQGGIGEAIVDIPEIPGFKDLEPMEQFIAQVDLCVDCTTGCLKGLANVQCSDLLKKWLPQRCATFASKIQGQVDKIKGAGGD
modifications: SIGNAL (1)..(17)
notes: Gaussia luciferase mutant
- Activity of mutant relative to wild-type Gaussia luciferase without the signal peptide [1]: 0.146
- Activity of mutant relative to wild-type Gaussia luciferase without the signal peptide [2]: 0.155
- Activity of mutant relative to wild-type Gaussia luciferase without the signal peptide [3]: 0.120
